According to the nanobody polyreactivity screen of Harvey et al. (2022):

Assay: yeast display, Sf9 membrane polyspecificity reagent, FACS + sequencing; frameworks hold sequencing errors
Method in brief: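 A nanobody's polyreactivity label depends on the gate it was sorted from. Yeast display cells were stained with 10% biotinylated, detergent-solubilized Sf9 membrane reagent for 1 hour at 4 °C, enriched on streptavidin microbeads and sorted by FACS. The low and high (top ~1%) gates were set on anti-HA fluorescence for expression and streptavidin fluorescence for reagent binding.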

QVQLVESGGGLVQAGGSLRLSSAASGSTFNSYAMGWYRQAPGKERELVAGITSRGTSTYYADSVKGRFTISRDNAKNTVYLQMNSLKPEDTAVYYCNKYHYWASPMNYWGHGTQVTVSS
polyreactivity (PSR sort gate): high polyreactivity

QVQLVESGGGLVQAGGSLRLSCAASGRTFRLNAMGWYRQAPGKERELVAAITLGGGRTYYADSVKGRFTISRDNAKNTVYLQMNSLKPEDTAVYYCNKVKRSYYYVDTDYWGQGTQVTVSS
polyreactivity (PSR sort gate): high polyreactivity

QVQLVESGGGLVQAGGSLRLSCAASGRTIYFYTMGWYRQAPGKERELVATAITSGGCTNYAVSVKGRFTISRDNAKNTVHLLMNSRKPEDTAVYYCAAVPTEFGNRLEYDYWGQGTQVTVSS
polyreactivity (PSR sort gate): low polyreactivity

QVHLVESGGGLVQAGGSLRLSCASSGSIFGPYVMGWYRQAPRKERELVAAITWNGGSTNYADSLKGRFTISRDNAKNTVYLQMNSLKPEETAVYYCNTVSWPLSSKYYYWGQGTQVSVSS
polyreactivity (PSR sort gate): high polyreactivity

QVQLVESGGGLVQAGGSLRLSCAASGSIIVRNALGWYRQEPGTERELVAAISWGGGRTYYADSVKGRFTISRDNAKNTVYLQMNSLKPEDTAVYYCAAVHRAVQMGYWGQGTQVTVSS
polyreactivity (PSR sort gate): high polyreactivity

QVQIGESGGGLVQAGGSLRLSCAASGSTFWRYAMGWDRPATGKECELVASITGGGGSTYYADSVKGRFTISRDNAKNTVDLQMHRLKPEDNAVYSCNARRYYRVDSYDYWGQGTQVTVSS
polyreactivity (PSR sort gate): high polyreactivity

QVQLVESGGGLVEAGGSLRLSCAAYGFIFSHNTMGCYRQAPGKERELVAGISWSGGNTYYSDSVKGRFTISRDNAKNTGYLQMNRLKPEDTAVYSFNVRFVTGYRYRYGDDYWGQGTQVTVSS
polyreactivity (PSR sort gate): low polyreactivity

QVQLVESGGRLVQAGGSLRLSCAASGRTFWFNDMGWYRQAPGKVRQLVAAISDTDGSTYYADSVKGRFTISRDNAKNSVYLQMNSLKPVDTAVYYCAPEAYYGYLYAYDYWGQGTQVTVSS
polyreactivity (PSR sort gate): low polyreactivity

QGQLVESGGGLVQAGGILRLSCAASGIIFCRYAMGWYRQAPGKERELVATITWRGGSTYYADSVKARFTNSRDNAKNTVYLQMNSLKPEDTAVYSSAADTRPSRSFRARDYWGQGTQVTVSS
polyreactivity (PSR sort gate): low polyreactivity

QVQLVESGGGLVQAGGSLRLSCAASGSTFKYYAMGWYRPAPGKERELVAAISGRGGRTYYADSVKGRFTISRDNAKNTVYLQMNSLKPEDTAVYYCNAPFLGAHHYGYEYWGQRTQVTVSS
polyreactivity (PSR sort gate): high polyreactivity

QVQLVESGGGLVQAGGSLRLSCAASGFIFVPYAMGWDRQAPGNERELVAAITWSGAATYYADSVQGRFTISRDNAKNTVYLQLNSLKPEDTAVYYCAAENWLPQTGGYYWYDSWGQGTQVTVSS
polyreactivity (PSR sort gate): high polyreactivity

QVQLVDTGGGLVQAGGSLRLICAASGLTFSYNAMGWYRQAPGKERELVAAITVSGGRTYYADSVKGRFTISRDNAKNTVYLQMNSLKAEDTAVYYCNADYDEGYYGYLRYDYDYWGQGTQVTVSS
polyreactivity (PSR sort gate): high polyreactivity

QVQLVESGGGLVQAGGSLRLSCAASGSIFAWYGMGWSRQAPGKERELVAAISTAGSTNYADSVKGRFTISRDNAKNTVYFQMNSLKPEDTAVYYCAKKSSWYYPERFDYWGQGTQVTVSS
polyreactivity (PSR sort gate): low polyreactivity

QLQLVESGGGLVQAGGSLRLSCAASGRIFDYYAIGWYRQAPGKERQLVATINFSDGSTYYADSVKGRFTISRDNAKNTVYLQMNSLKPEDTAVYYCAAAGWEPYDSLDMNYWGQGTQVTVSS
polyreactivity (PSR sort gate): low polyreactivity

QVQLVESGGGLVQAGGSLRLSCAASGRTFVRYAMGWYRQAPGKERELVAAISWSGGSTYYADSVKGRFTISRDNAKNTVYLQMNSLKPEDTAVYYCAADDETPSSHEEDYWGQGTQVTVSS
polyreactivity (PSR sort gate): high polyreactivity

QVQLVESGGGLVQAGGSLRLSCAASGNNFYRNAMGWSRQAPGKERELVAAINSGSSTKYADSVKGRFTISRDNAKNTVYLQMNSLKPEDTAVYYCAKRRYTAIWYGYWGQGSQVTVSS
polyreactivity (PSR sort gate): high polyreactivity

QVQLVESGGGLVQAGGSLRLSCAASGFTFSYNAMGWYRQAPGKERELVAAISSTGTSTYYADSVKGRFTISRDNAKNTVYLQMISLKPEDTAVYYCNAYGYDGYYAGRHGYWGQGTQVTVSS
polyreactivity (PSR sort gate): low polyreactivity

QVQLVESGGGLVQAGGSLRLSCAASGSIFYNAMGWYRQAPGKERELVAAISYRGGRTYYADSVKGRFTISRDNAKNTVYLQMNSLKPEDTAVYYCAADSTVGRYPYDYWGQGTQVTVSS
polyreactivity (PSR sort gate): high polyreactivity

QVQLVESGGGLVQAGCSLRLSCAASGRIFWVNAMGWYRQAPGKERELVAVISSGGSTHYADSVKGRFTISRDNAKYTVSLQMNSLKPEDTAGYYCAADRYYVGYYYWGQGTQVTVSS
polyreactivity (PSR sort gate): low polyreactivity

QVQLVESGGGLVQAGGSLRLSCAASGTTYYNAMGWYRQAPGKERELVAAIRFRSGSTYYADSVKGRFTISRDNAKNTVFLQMNSLKPEDTAVYYCNIVPYRGYRRYGYWGQGTHVTVSS
polyreactivity (PSR sort gate): high polyreactivity

QVQLVESGGGLVQAGGSLRLSCAASGSIFDYKAMGWYRQAPGKERELVAAIDSSDTGTYYADSVKGRFTISRDNAKNTVYLQMNSLKPEDTAVYYCAAEYGWWEGSTTYLRYDYWGQGTQVTVSS
polyreactivity (PSR sort gate): low polyreactivity

QVQLVESGGGLVPARGSLRLSCAASGFIFSDNAMGWYRQAPGKERELVAAITDDGDTTYYADSVKGSFTISRDNAKNTVYLQMISLKPEDTAVYYCATEIEDVEDSGPYYYVGYGYWGQGTQVTVSS
polyreactivity (PSR sort gate): high polyreactivity
